Assay: soluble on expression in E. coli; label from the status in PepcDB or PDB records

Row | Sequence | soluble on expression in E. coli
1 | MAFLLALDQGTTSSRAILFTLEGRPVAVAKREFRQLYPKPGWVEHDPLEIWETTLWAAREVLRRAGAEAGEVLALGITNQRETTLLWDRKTGKPLHNAIVWQDRRTTPLCEALRAKGLEPLFRERTGLLFDPYFSGTKLVWLLENVPGLKARAEGGGVAFGTVDTWLIWNLTGGKVHATDPTNASRTLLFNLHTLAWDPELLEALGIPAALLPEVRPSDGDFGETLPELLGAPVPIRGVLGDQQAALFGQAALGGGEGKCTYGTGAFLLLNTGKRPVLSEKGLLATVAWSLGGRATYALEGSLFVAGAAVGWLKEVGLIRESAEVEALAASVEDTGDVYFVPAFTGLGAPYWDPYARGTLLGLTRGTSRAHLARAALEGVAFQVRDVVLAMEEEAGVRLKVLKADGGMAQNRLFLKIQADLLGVPVAVPEVTETTALGAALMAGVGAGALSPEDVAGRFREAERFLPTMPEGRREALYRRWREAVERAKGWAREG | soluble
2 | MIFENRLALSAMAGVNNAEFCRKQKASLVILGGFNADRRALEAAEKAVKRGRKEFLFGIDGIEGEIKKLGRRKFAVNVRSSSLEGYLNVAELVAEFEGIIEINAHCRQPEFVEIGCGEWLLFNHERLVEIVSKTSRIAPTFVKIRGGHKLDYEKIARKLFDAGCLAIHVDAMIPGGGCDFSLIERISRIGNVIGNNSFVDIESGERIIMAGAKMASAARAVLRDENFFEKMLRSPLLSQPVELSCGRFR | not soluble
3 | MNNSLSDKYNSSSTTLCSSVHAESCPTDTEDAIIRNIKLPGFRGNISRALSQKSNSPSGCRTPTPKTAPPSYEQFQVLRRNSMKSSVQPQRNGILSPAPPVPTSSRANTITVNGAHVQQAMNRIDMSTDSANTILRSPYSTRSDSITSVDSGQCSGDQIERRSNCSTRQESKDDDDTGMPSYARMASTMDHVLRTSSALYTLLSSALDPATCRDLLAKSSVFIQLLESSPCTNYLPKTEMARLKMNVQELQKNRDKGIIDMNNMTNFFAILLRKSIESVLLVFVRIISKNLCESNGKDRLTPICLEHLIHICLFGDELCIEAIQKGCISSVIRIMKNDQPQENTLRFLLRTLAVLCGVSKGALALLTQGGLDLVIDRLLSISSSICSVEAAGILTQLTNPQSAFIRLNHVEPIISRLLDLIDQCKSGDSLLLATAALNNVTLQNPNGVDIMYRNNSIRRLISAYNRENCATVFVQEQIVTAFSRLAARHLDHQMVDQNAIPVLLEFLSLTHPIHADYCRRIRYKAAVCIGTLANSEIGLKALYGNNAYAILSNVLYDDNNSSNPFNMICNNIRTKLESKYQSESAV | not soluble
4 | MGSDKIHHHHHHMDVAAEYPVDKPDTQVSVRDVFGIESDLTVPAFTEVSEHVPDRDDAYCFDRDTTLAVLAGFAFNRRVMIQGYHGTGKSTHIEQIASRLNWPCIRVNLDSHVSRIDLVGKDAIVLRDGLQVTEFREGILPWCLQRPIALTFDEYDAGRADVMFVIQRVLEVEGRLTLLDQNKVIRPHPYFRLFATANTVGLGDTTGLYHGTQQINQGQMDRWNIVATLNYLEHDVEVGIALAKRPEYDTPEGRAKINAMVGVADLSRSGFINGDISTVMSPRTVLTWAENATIFGDDAFAFRVTFLNKCDETERPIIAEYYQRCFGKELPESAAFRTAFL | not soluble
5 | MSLDGGTLGATNRFLTRDGSPWIPIAGEMHYSRIAAERWDTELAKMAAAGIDVVSTYVFWNHHEEREGEWDFSGNRNVRRFVELCARHGLHVIVRLGPFCHGEVRNGGLPDWLYGKSYEVRSLDAGFLDAVRGLYAHIAQQLRGLYFKDGGPIIAAQVDNEYMASSAPWEMTTGISREWVPSGHDGAGYLERLRDIAIEEGIDPPMFTCTGWQSPVPDDMLPLWGGYAYRPWLFYDGVGAEGMTEHPATDEYRYRRLHGSSTSDGFDPPYDPDSRPYACCEMGGGMFNSYDYRFVLPKRSVDAMANIKLGSGCDFLGYYMFHGGTNPKGAAGFLNEGQTPKRSYDFQAPLGKFGQVRESYRRLRTLHEFVKAFGPELAGMPVSLQDGQDRIDPSDSETLRYAVRSDGERGFVSIDNFQDHARVPSRHGEQIDVTTGTGERIRFTGIGLAEGENCILPFNMDLDGVRLVRANLQPVTVLRVPGRPFRTFVFLKPDGMDELTFHFEGDIQDVTVGKADFERFMVRDAAEIVCVTRALAGRMTVLDGGLAFVDDDNALLYEDGDGWTLESPRAENGIAAYPEGLLGSPRPVEPVSVYARMRRLHADRYEIALPAGMGRLFRDQRQVADVMLNIAYQGDIGWLFCGDVLIADNFCNGETWQVGLRDYADAIDAAGGKLTLVVTPLRRGVRVKVTSSMAARLEQSDACVADVTDVYATPVYHMPVGEGHHHHHH | not soluble
6 | SANKGQQPPYLHLAELTASQFLDIWKHFDADGNGYIEGKELDNFFSQLEIARRGAGVDPSNAAFKGRMTEFMQKFDKNKDGRIEMSELAQILPTEENFLLCFRQFVGSSTEFMAAWRKYDTDRSGFIEANELKGFLSDLLKKANRHYDDQKLQEYTQTILKMFDLNGDGKLGLSEMARLLPVQENFLLKFQGVRLSAEQFNAIFTYYDKDGNGYIDEQELDALLKDLYEKNNKEVDSKSLTGYKQSIMALSDGGKLYRSELEIVLCRDPML | soluble
7 | MGSDKIHHHHHHMKKTIILSDENYYSQEADLAYMSVSQYKKFLECEAAALAKLKGEWTPENDPKALLVGNYVHSYFESPEIHEAFKEENKSKMFSSRKPFGLLKDFQIAEQMIERLKQEEAFLNIYQGEKEVIVTGEIGGAMWKGKIDCLNLEEKYFVDIKTTKDMHEKKWDERLNRKANFIERFGYVLQMAVYCELLRQQYDKIFLPLIAAVSKQTPSEAKLITLSEEKMIYELEELKENIEHVVRVKNGEEEPVSCGICEYCRGHNKITNFTSMDDL | not soluble
8 | MSLEFLNSLSYGISSHEVNNEFKQIFRELLTNHIIKEHKNKYYLNNGFAFGVLDISSKGTGFLQCFDESFKKDLLIENKNLKGANYKDIVAVKLLPLKKKRPSAKVILVLKRANETSLMITKRYGEAVLGMNIKTGLSTALKASQKSLKALPLGTILKIENENNNIIEVLGHIDDESVDEKISLALFNKNNEFSDACIKEALANGDSVDASMYENRMDLRALPFCTIDPIHAKDFDDAIYFDTQKREIYVAIADVSEYVYAYSAIDKEARNRGFSIYFPHIAIPMLPRPLSENICSLKPHLDRLAYCFKITLNHENKVIKEELFEGIINSKRRFNYDEVDEILIQKPDLKELSWLYELFEITKNLRKMRLKNAFEFRTEELRMNLDENLSLKSTVFEKDTPSHNLIEDCMLLANKAAAKLIDIGVFRNHLSADVRKIDKLLNELRELGIDVNFKPNLPELIRDIQALADELNLRAEVDKLIIKAQKKAEYSSVNAGHFGLGFDKYSHFTSPIRRYSDLILHRLLKAKQKNDEKLFNYLLLNIESTCENLSTLEREADKVAFDFMDRKFARWAAKNIGKKFKALVVQNDGVCIAKLDDEIKGADIILYDTRVNLLENVEVQIMEADIVMAKIYAKITQRLIKEENVEGHHHHHH | not soluble
9 | MLTDTAAEGLSDSEVGREEPATAEEEQREQQPEKFEEPVFSAELDEEQTAPESQTEAVSEDEKAKEPSDSPVYNHHENAAEGAESPFVQEEQMDIRQEEPLFTDHEYSSEALAQAETVAKESEEPSESIINNHYDTLGEAQETKIDVQPDSHTELEKTEHMEQGSKSSTATLENRQEIRADKPREASEEPKKRPGVQEKRTEQSASSQKGPSVPFNVMMLKRDTHKQQKAEERRGSYVFPNVALLDVPPAQVQDDTAWIEEQRQLLDLTLKNFNVRANVVHVTQGPSVTRFEVHPEPGVKVNKITNLSDDIKLSLSAKDIRIEAPIPGKNTIGIEVPNRTSKVVDLRQMIRSSAFRTSKSPLTAALGLDISGNPVVIDLKKMPHGLIAGATGSGKSVCINTILVSLLYKADPSEVKVLLIDPKMVELAPYNKIPHLVSPVITDAKAATAALKWVVEEMERRYELFAHSGVRDIDRFNQLTAEHQMGEKLPYLVVIIDELADLMMVAPNDVEESIARIAQKARACGIHLLVATQRPSVDVITGLIKANIPTRIAFSVSSQVDSRTIIDIAGAEKLLGKGDMLFLENGSGKPVRLQGNFVSDREIDRVVSHVRSQMPPTYLFEQEELVRQGSALKEEDELFYEACEFVVEQNSASTSSLQRRFRIGYNRAARLIDMMEAEGMISEAKGSKPREVLITASDLINE | not soluble
10 | MDSINTRIAEELSALPSGRVQPQQVAAAVALLDEGSTVPFIARYRKEVTGSLDDTQLRMLEERLRYLRELEERRGAILASIEEQGKLTPELARDIKLADTKTRLEDLYLPYKQKRRTKGQIALEAGLGALADALFDDPTLVPESEAARFVDAEKGFADVKAVLEGAKYILMERFAEDATLLDKLRVFMKNEATLTARVVPGKEQEGAKFSDYFEHDEPLKSAPSHRALAIFRGRNEGVLSASLKVGEEAPGTLHPCEVMIAERFGLSNQGRAADKWLAEVVRWTWKVKLYTHLETDLFGELRDGAEDEAISVFARNLHDLLLAAPAGPRATLGLDPGLRTGVKVAVVDATGKLLDTATVYPHAPKNQWDQTLAVLAALCAKHQVELIAIGNGTASRETDKLAGELIKKYPGMKLTKIMVSEAGASVYSASELAAKEFPELDVSLRGAVSIARRLQDPLAELVKIEPKSIGVGQYQHDVSQLKLARSLDAVVEDCVNAVGVDVNTASAALLARISGLNSTLAQNIVAHRDANGAFRTRDELKKVSRLGEKTFEQAAGFLRVMNGDNPLDASAVHPETYPLVQRIAADTERDIRSLIGDSAFLKRLDPKKFTDETFGLPTVTDILKELDKPGRDPRPEFKTAEFQEGVESLKDLKPGMVLEGVVTNVTNFGAFVDIGVHQDGLVHISALSEKFVKDPYEVVKAGDIVKVKVMEVDIPRNRVGLSMRMSDTPGEKVEGQRGGRPTGSGQPRQERGAPRGQSAPPANNAMAALFANAKQLKKKHHHHHH | soluble
11 | MSLENYWVDERTLVVSGDFFGVSTGLLGGWKRVRHAFNHTVSEEFHSMEPAEYLRKVARGYGLKSYFGLLTSVPIEKLSVKGCGEVTVFATAGVMNPNERVGTINIIAVFECRMSRAAMLNAIITATEAKTKALLEEGHNFTGTNTDAVVVLCTQKGGYHRYCGPASEVGQKLWRCAGEAVKDSLARWEGHHHHHH | not soluble
12 | MSLETFLCGKESCNKGYIRHPWYGKKVGYIGDSITDPNCYGDNIKKYWDFLKEWLDITPYVYGVSGRQWNDVPRQAEQLKKEHGEEVDAIVVLMGTNDFNSSVPVGTWFAEKEEQVMAARGETKKLETRKRRVPIMTNDTYKGRINIGLSHLKKLFPDKQIVLLTPLHRSLAEFGEKNVQPDESYQNKCGEYVDAYVQAIKEAGNLWGVPVIDFNSVTGMNPMIEEQLIYFYDSGYDRLHPNTNGQERMAHTLMYQLLSLPASFEGHHHHHH | soluble
13 | MANYPKELPAQTQSRQPGIESEMNPSPVYEYEDYKGADKLKGKVALITGGDSGIGRAVSVAYAKEGADIAIVYKDEHEDAEETKKRVEQEGVKCLLIAGDVGEEEFCNEAVEKTVKELGGLDILVNNAGEQHPKESIKDITSEQLHRTFKTNFYSQFYLTKKAIDYLKPGSAIINTTSINPYVGNPTLIDYTATKGAINAFTRTMAQALVKDGIRVNAVAPGPIWTPLIPATFPEETVAQFGQDTPMGRPGQPVEHVGCYVLLASDESSYMTGQTLHVNGGNFVT | soluble
14 | MAHHHHHHMEGQSELVERVVRMQLTSPDFAEYCVAHVTDPKHRFLFSRNEDEAERRLYVRLLEGRGHQKRAETPAVVAPAFAPERTSSLMTHGGTAVLWMSLLDYFSSTPGVRGPHMPHMFRTEADLTAFVDMLDGAQREHVSLEDVVQFMLRRLPMTEVFLYVLCYMCDVRIHEVRRETRRRSSGACVTDSADGASDEKKLQAAGTLLFIANMLLLQHDALERPLRYLSVFEFYMQRMVEALAGTVPKNSPVDTFLRETVMVWSEGHVFGEEALDCMKRAIGCSLG | not soluble
15 | MGLYLKGPSYKQVARILGMSHYRMKMLAMKKREVDDTVTKINGERRYLWAAIDVESREILAILEHHHHHH | not soluble

— the DeepSol protein solubility set
